Assay results as given in patent US20210373004A1.

Key:
[1] = target: Flag-mCherry-ColKhan-Cys-6His (Photorhabdus khanii); test: EIA 8 plex n° 1: colicin coated at 100 nM, Im-RLuc8 alone at 100 nM, luciferase signal
[2] = target: Flag-mCherry-ColErw-Cys-6His (Pectobacterium carotovorum); test: EIA 8 plex n° 2: colicin coated at 100 nM, Im-RLuc8 alone at 100 nM, luciferase signal
[3] = target: Flag-mCherry-ColKhan-Cys-6His (Photorhabdus khanii); test: as above

Measured: RLU

B1: Myc-RLuc8-Im9-6His (protein)
chain: MGGEQKLISEEDLGGSASKVYDPEQRKRMITGPQWWARCKQMNVLDSFINYYDSEKHAENAVIFLHGNATSSYLWRHVVPHIEPVARCIIPDLIGMGKSGKSGNGSYRLLDHYKYLTAWFELLNLPKKIIFVGHDWGAALAFHYAYEHQDRIKAIVHMESVVDVIESWDEWPDIEEDIALIKSEEGEKMVLENNFFVETVLPSKIMRKLEPEEFAAYLEPFKEKGEVRRPTLSWPREIPLVKGGKPDVVQIVRNYNAYLRASDDLPKLFIESDPGFFSNAIVEGAKKFPNTEFVKVKGLHFLQEDAPDEMGKYIKSFVERVLKNEQKLELKHSISDYTEAEFLQLVTTICNADTSSEEELVKLVTHFEEMTEHPSGSDLIYYPKEGDDDSPSGIVNTVKQWRAANGKLEGGGSHHHHHH
> 100000 RLU: all assays above
